Data set [1] has as its target borneol-type dehydrogenase SrBDH1 from Salvia rosmarinus (S. rosmarinus). As to the kind of experiment: SEC-MALS.
Data set [2] shares this target. As to the kind of experiment: cryo-EM structure.
The data set “SEC-MALS” deals with the molecule itself. In words: SEC-MALS.

“And” between values parts separate entries of the source, which are not always exact repeats. Identical values can stand only once.

Regarding “borneol-type dehydrogenase SrBDH1 from Salvia rosmarinus (enzyme)”, the stoichiometry N in data set [1] and in data set [2] was 4 in each case.

B1: borneol-type dehydrogenase SoBDH2 from Salvia officinalis (enzyme)
chain: MATGAANVESPQSLPLRLLGRVALVTGGSSGIGESIVLLFRKHGAKVCIADVQDNQGQRLCETLGGSSDIAFCHCDVTIEDDVKRAVDFTVDKFGTLDIMVNNAGVSGPPCPDIRDFELSAFDRVFDINVRGVFIGMKHAARIMIPAKKGSIISISSVASTMGGLGPHAYTGSKHAVLGLTKNVAAELGKHGIRVNCVSPYAVATSLALAHLPEAERTEDTWDDFRRFVADNANLQGVELTMEDVANAVVFLASDEARYVSGMNLMVDGGFTSTNHALQVFRP
Take B1: the “stoichiometry N” value in the data set “SEC-MALS” is 8 and 4.

The record behind these values is paper doi:10.1101/2021.06.15.448552 (bioRxiv, 2021).
